The source of these data is the supplement of paper PMC5998384.

Series [1] has as its system HeLa Kyoto. As to the kind of experiment: solubility change mitosis vs G1/S (difference of NP-40 vs SDS log2 ratios) (log2 ratio difference); higher = more soluble in mitosis.
In series [2] the test system is HeLa Kyoto. As to the kind of experiment: thermal stability score vs G1/S (z-score of summed log2 fold changes over temperatures); higher = more thermally stable than in G1/S.
For series [3], the system named is HeLa Kyoto. The series is described as follows: solubility in G1/S (NP-40 vs SDS abundance) (log2 ratio); higher = more soluble. As to conditions: cell cycle stage: G1/S.
Series [4] concerns HeLa Kyoto. The series is described as follows: melting temperature (median over replicates), in situ; higher = more thermally stable.
The mark [5] stands for this setting: cell cycle stage: early G1 (4.5 h after nocodazole release).
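Wherever melting temperature (median over replicates), in situ is given: HeLa Kyoto cells synchronized by double thymidine or nocodazole block, proteins quantified by TMT10plex mass spectrometry, three independent biological replicates.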
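Wherever solubility change mitosis vs G1/S (difference of NP-40 vs SDS log2 ratios) is given: synchronized HeLa Kyoto cells (double thymidine block for G1/S, nocodazole release for mitosis), protein amounts in NP-40 versus SDS lysates quantified by mass spectrometry, three biological replicates.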
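Wherever solubility in G1/S (NP-40 vs SDS abundance) is given: HeLa Kyoto cells arrested at G1/S by double thymidine block, proteins quantified by TMT10plex mass spectrometry in mild NP-40 versus SDS extracts, three biological replicates.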
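Wherever thermal stability score vs G1/S (z-score of summed log2 fold changes over temperatures) is given: synchronized HeLa Kyoto cells, proteins quantified by TMT10plex mass spectrometry, three biological replicates, mitosis taken 0.5 h after nocodazole release, G1/S directly after double thymidine block.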

For the sequence “MAKPAQGAKYRGSIHDFPGFDPNQDAEALYTAMKGFGSDKEAILDIITSRSNRQRQEVCQSYKSLYGKDLIADLKYELTGKFERLIVGLMRPPAYCDAKEIKDAISGIGTDEKCLIEILASRTNEQMHQLVAAYKDAYERDLEADIIGDTSGHFQKMLVVLLQGTREEDDVVSEDLVQQDVQDLYEAGELKWGTDEAQFIYILGNRSKQHLRLVFDEYLKTTGKPIEASIRGELSGDFEKLMLAVVKCIRSTPEYFAERLFKAMKGLGTRDNTLIRIMVSRSELDMLDIREIFRTKYEKSLYSMIKNDTSGEYKKTLLKLSGGDDDAAGQFFPEAAQVAYQMWELSAVARVELKGTVRPANDFNPDADAKALRKAMKGLGTDEDTIIDIITHRSNVQRQQIRQTFKSHFGRDLMTDLKSEISGDLARLILGLMMPPAHYDAKQLKKAMEGAGTDEKALIEILATRTNAEIRAINEAYKEDYHKSLEDALSSDTSGHFRRILISLATGHREEGGENLDQAREDAQVAAEILEIADTPSGDKTSLETRFMTILCTRSYPHLRRVFQEFIKMTNYDVEHTIKKEMSGDVRDAFVAIVQSVKNKPLFFADKLYKSMKGAGTDEKTLTRIMVSRSEIDLLNIRREFIEKYDKSLHQAIEGDTSGDFLKALLALCGGED [ANXA6]”, in the series on HeLa Kyoto [1], the “solubility change mitosis (log2)” value was -0.172. For the same sequence, the thermal stability score turned out to be 5.43 in the series on HeLa Kyoto [2] (setting [5]) and 4.61 in the series with HeLa Kyoto [2] (cell cycle stage: mitosis). Besides, the “solubility in G1/S (log2)” value with HeLa Kyoto [3] was 0.275. Further, the melting temperature in the series on HeLa Kyoto [4] (cell cycle stage: G1/S) and in the series with HeLa Kyoto [4] (cell cycle stage: mitosis) was 50 °C throughout.
On to “MAKQKRKVPEVTEKKNKKLKKASAEGPLLGPEAAPSGEGAGSKGEAVLRPGLDAEPELSPEEQRVLERKLKKERKKEERQRLREAGLVAQHPPARRSGAELALDYLCRWAQKHKNWRFQKTRQTWLLLHMYDSDKVPDEHFSTLLAYLEGLQGRARELTVQKAEALMRELDEEGSDPPLPGRAQRIRQVLQLLS [C7ORF50]”, for which the “solubility change mitosis (log2)” value in the series on HeLa Kyoto [1] was determined as 0.57. Also, the results for the thermal stability score in the series with HeLa Kyoto [2] (setting [5]) and in the series with HeLa Kyoto [2] (cell cycle stage: mitosis) were 0.0776 and 0.494, respectively. For the same sequence, in the series on HeLa Kyoto [3], the “solubility in G1/S (log2)” value was -0.289. In addition, the figures for the melting temperature in the series with HeLa Kyoto [4] (cell cycle stage: G1/S) and in the series with HeLa Kyoto [4] (cell cycle stage: mitosis) were 50 °C and 53.5 °C, respectively.
With “MAKRKEENFSSPKNAKRPRQEELEDFDKDGDEDECKGTTLTAAEVGIIESIHLKNFMCHSMLGPFKFGSNVNFVVGNNGSGKSAVLTALIVGLGGRAVATNRGSSLKGFVKDGQNSADISITLRNRGDDAFKASVYGNSILIQQHISIDGSRSYKLKSATGSVVSTRKEELIAILDHFNIQVDNPVSVLTQEMSKQFLQSKNEGDKYKFFMKATQLEQMKEDYSYIMETKERTKEQIHQGEERLTELKRQCVEKEERFQSIAGLSTMKTNLESLKHEMAWAVVNEIEKQLNAIRDNIKIGEDRAARLDRKMEEQQVRLNEAEQKYKDIQDKLEKISEETNARAPECMALKADVVAKKRAYNEAEVLYNRSLNEYKALKKDDEQLCKRIEELKKSTDQSLEPERLERQKKISWLKERVKAFQNQENSVNQEIEQFQQAIEKDKEEHGKIKREELDVKHALSYNQRQLKELKDSKTDRLKRFGPNVPALLEAIDDAYRQGHFTYKPVGPLGACIHLRDPELALAIESCLKGLLQAYCCHNHADERVLQALMKRFYLPGTSRPPIIVSEFRNEIYDVRHRAAYHPDFPTVLTALEIDNAVVANSLIDMRGIETVLLIKNNSVARAVMQSQKPPKNCREAFTADGDQVFAGRYYSSENTRPKFLSRDVDSEISDLENEVENKTAQILNLQQHLSALEKDIKHNEELLKRCQLHYKELKMKIRKNISEIRELENIEEHQSVDIATLEDEAQENKSKMKMVEEHMEQQKENMEHLKSLKIEAENKYDAIKFKINQLSELADPLKDELNLADSEVDNQKRGKRHYEEKQKEHLDTLNKKKRELDMKEKELEEKMSQARQICPERIEVEKSASILDKEINRLRQKIQAEHASHGDREEIMRQYQEARETYLDLDSKVRTLKKFIKLLGEIMEHRFKTYQQFRRCLTLRCKLYFDNLLSQRAYCGKMNFDHKNETLSISVQPGEGNKAAFNDMRALSGGERSFSTVCFILSLWSIAESPFRCLDEFDVYMDMVNRRIAMDLILKMADSQRFRQFILLTPQSMSSLPSSKLIRILRMSDPERGQTTLPFRPVTQEEDDDQR [SMC6]”, in the series on HeLa Kyoto [1], the “solubility change mitosis (log2)” value came out at 0.0261. In addition, the figures for the thermal stability score in the series with HeLa Kyoto [2] (setting [5]) and in the series with HeLa Kyoto [2] (cell cycle stage: mitosis) were 0.465 and -0.0501, respectively. In addition, the “solubility in G1/S (log2)” value in the series with HeLa Kyoto [3] is -0.133. Also, the melting temperature in the series on HeLa Kyoto [4] (cell cycle stage: G1/S) was determined as 50.6 °C; with HeLa Kyoto [4] (cell cycle stage: mitosis), 50.4 °C.
For “MALDVKSRAKRYEKLDFLGEGQFATVYKARDKNTNQIVAIKKIKLGHRSEAKDGINRTALREIKLLQELSHPNIIGLLDAFGHKSNISLVFDFMETDLEVIIKDNSLVLTPSHIKAYMLMTLQGLEYLHQHWILHRDLKPNNLLLDENGVLKLADFGLAKSFGSPNRAYTHQVVTRWYRAPELLFGARMYGVGVDMWAVGCILAELLLRVPFLPGDSDLDQLTRIFETLGTPTEEQWPDMCSLPDYVTFKSFPGIPLHHIFSAAGDDLLDLIQGLFLFNPCARITATQALKMKYFSNRPGPTPGCQLPRPNCPVETLKEQSNPALAIKRKRTEALEQGGLPKKLIF [CDK7]”, in the series on HeLa Kyoto [1], the “solubility change mitosis (log2)” value is -0.142. For the same sequence, the values for the thermal stability score in the series with HeLa Kyoto [2] (setting [5]) and in the series with HeLa Kyoto [2] (cell cycle stage: mitosis) were 0.106 and 1.13, respectively. The “solubility in G1/S (log2)” value in the series with HeLa Kyoto [3] worked out at 0.167. Further, the melting temperature in the series with HeLa Kyoto [4] (cell cycle stage: G1/S) and in the series on HeLa Kyoto [4] (cell cycle stage: mitosis) was 51 °C throughout.
In the case of “MALGLKCFRMVHPTFRNYLAASIRPVSEVTLKTVHERQHGHRQYMAYSAVPVRHFATKKAKAKGKGQSQTRVNINAALVEDIINLEEVNEEMKSVIEALKDNFNKTLNIRTSPGSLDKIAVVTADGKLALNQISQISMKSPQLILVNMASFPECTAAAIKAIRESGMNLNPEVEGTLIRVPIPQVTREHREMLVKLAKQNTNKAKDSLRKVRTNSMNKLKKSKDTVSEDTIRLIEKQISQMADDTVAELDRHLAVKTKELLG [MRRF]”, the “solubility change mitosis (log2)” value in the series on HeLa Kyoto [1] worked out at 0.328. Further, the thermal stability score in the series on HeLa Kyoto [2] (setting [5]) was -2.43; in the series on HeLa Kyoto [2] (cell cycle stage: mitosis) it was -2.36. In addition, the “solubility in G1/S (log2)” value with HeLa Kyoto [3] is 0.605. Besides, the melting temperature was found to be 50.1 °C in the series on HeLa Kyoto [4] (cell cycle stage: G1/S) and 51.3 °C in the series on HeLa Kyoto [4] (cell cycle stage: mitosis).
Turning to “MALKQISSNKCFGGLQKVFEHDSVELNCKMKFAVYLPPKAETGKCPALYWLSGLTCTEQNFISKSGYHQSASEHGLVVIAPDTSPRGCNIKGEDESWDFGTGAGFYVDATEDPWKTNYRMYSYVTEELPQLINANFPVDPQRMSIFGHSMGGHGALICALKNPGKYKSVSAFAPICNPVLCPWGKKAFSGYLGTDQSKWKAYDATHLVKSYPGSQLDILIDQGKDDQFLLDGQLLPDNFIAACTEKKIPVVFRLQEGYDHSYYFIATFITDHIRHHAKYLNA [ESD]”, in the series with HeLa Kyoto [1], the “solubility change mitosis (log2)” value was -0.0867. For the same sequence, the thermal stability score in the series with HeLa Kyoto [2] (setting [5]) was -1.51; in the series with HeLa Kyoto [2] (cell cycle stage: mitosis), -2.28. For the same sequence, the “solubility in G1/S (log2)” value in the series on HeLa Kyoto [3] was -0.0889. For the same sequence, the melting temperature in the series on HeLa Kyoto [4] (cell cycle stage: G1/S) was found to be 55.8 °C; in the series with HeLa Kyoto [4] (cell cycle stage: mitosis), 56.4 °C.
